Assay results taken from patent US8470548 (INTRA CELLULAR THERAPIES, dated 2013).

Columns and labels:
[1] = target: T1, third intracellular loop of the rat 5-HT1B receptor (amino acids 226-311), GAL4 DNA-binding domain fusion … (rat, UniProt P04386 1-147; P28564 226-311); assay: yeast two-hybrid, co-transformation of p11 prey and bait, -LWH medium and X-gal overlay
T1 construct: Yeast two-hybrid bait in a pAS2-derived vector; also called 5-HT1B receptor-bait; 5-HT1B receptors

[2] = target: T2, third intracellular loop of the 5-HT1A receptor (amino acids 218-345), bait construct (rat, UniProt P04386 1-147; P19327 218-345); assay: yeast two-hybrid, growth on -LWH medium and X-gal overlay
T2 construct: Yeast two-hybrid bait in the pAS2-derived vector

[3] = target: bait control vector (empty plasmid) (UniProt P04386 1-147); assay: as above
[4] = target: T3, third intracellular loop of the 5-HT6 receptor (amino acids 209-265), bait construct (rat, UniProt P04386 1-147; P31388 209-265); assay: as above
T3 construct: Yeast two-hybrid bait in the pAS2-derived vector

- binding result [1]: binds
- binding result [2]: no binding
- binding result [3]: no binding
- binding result [4]: no binding
B1: p11 (rat; prey clone from the pACT2 rat brain cDNA library) (other, UniProt P05943 1-95, looked up)
chain: MPSQMEHAMETMMLTFHRFAGEKNYLTKEDLRVLMEREFPGFLENQKDPLAVDKIMKDLDQCRDGKVGFQSFLSLVAGLIIACNDYFVVHMKQKK
notes: Yeast two-hybrid prey; identified by BLAST search of the prey inserts; also called p11 prey; annexin-II light chain; not shown: fusion partner encoded by the pACT2 prey vector
